# Measured values: patent US20050271676A1, “Inducing cellular immune responses to human immunodeficiency virus-1 using peptide and nucleic acid compositions” (Epimmune Inc., priority 1993, published 2005)
# No end group written: not given here.
# Columns and labels:
# [1] = target: T1, HLA-A*0301 (Homo sapiens, UniProt P04439); test: purified HLA class I binding assay, A*0301; settings: for A*0301 binding information: Table IX, HIV A03 super motif peptides, binding value
# T1 construct: endogenous in cells; host or cells: GM3107
# [2] = target: HLA-A*3301 (Homo sapiens, UniProt P04439, A270S/D185E/E176V/E277Q/E87N/F33T/G231S/H175R/I121M/I218V/I322F/K168Q/K210R/L300P/L318F/M331R/P217A/Q86R/Q94H/R138Q/T323A/T345S/T97I/V358M/Y195H); test: purified HLA class I binding assay, A*3301
# [3] = target: HLA-A*1101 (Homo sapiens, UniProt P04439, A114D/D185E/E176A/F33Y/L180Q/S129P/T187R); test: purified HLA class I binding assay, A*1101
# [4] = target: HLA-A*3101 (Homo sapiens, UniProt P04439, A270S/D185E/E176V/E277Q/F33T/G231S/G80R/H175R/I121M/I218V/I322F/K168Q/L300P/L318F/M331R/P217A/Q94H/R138Q/T323A/T345S/T97I/V358M); test: purified HLA class I binding assay, A*3101; settings: for A*3101 binding information: Table IX, HIV A03 super motif peptides, binding value, unit not given
# [5] = target: T2, HLA-DRB1*1101 (DR5w11) (Homo sapiens, UniProt P01903+P01911, A100R/A169T/A87E/I96F/K41T/L162R/M171V/P40S/Q125H/Q178H/Q39Y/Q99D/R42S/S66Y/T262R/V115G/W38E); test: biochemical; format: binding
# T2 construct: endogenous in cells
# T2 sequence (P01903 26-254, other chains not shown): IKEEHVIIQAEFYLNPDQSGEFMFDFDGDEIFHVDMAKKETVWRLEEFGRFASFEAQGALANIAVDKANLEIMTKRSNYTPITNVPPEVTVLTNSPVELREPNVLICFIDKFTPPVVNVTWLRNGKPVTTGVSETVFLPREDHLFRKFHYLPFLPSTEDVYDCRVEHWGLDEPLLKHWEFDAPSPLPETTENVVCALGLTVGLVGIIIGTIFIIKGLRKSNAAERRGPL
# [6] = target: T3, HLA-DRB1*1501 (DR2w2β1) (Homo sapiens, UniProt P01903+P01911); test: purified HLA class II binding assay, DRB1*1501 (DR2w2β1); settings: for DR2 wβ1 binding: HIV DR super motif peptides, unit not given
# T3 construct: expressed in transfected cells
# [7] = target: T4, HLA-DRB5*0101 (DR2w2β2) (Homo sapiens, UniProt P01903+Q30154); test: biochemical; format: binding
# T4 construct: expressed in transfected cells
# [8] = target: HLA-DRB1*1302 (DR6w19) (Homo sapiens, UniProt P01903+P01911, A100E/A169T/K41T/L162R/M171V/P40S/Q125H/Q178H/Q39Y/Q99D/R42S/S66N/T262R/V115G/W38E/Y61H); test: purified HLA class II binding assay, DRB1*1302 (DR6w19); settings: for DR6w19 binding: HIV DR super motif peptides, unit not given
# [9] = target: T5, HLA-DRB1*1201 (DR5w12) (Homo sapiens, UniProt P01903+P01911, A100R/A169T/D57E/D86V/F55L/H45Y/K41T/L162R/M171V/P40S/Q125H/Q178H/Q39Y/Q99D/R42G/S66L/T262R/V114A/V67L/W38E/Y59H/Y61H/Y89S); test: purified HLA class II binding assay, DRB1*1201 (DR5w12); settings: for DR5w12 binding: HIV DR super motif peptides, unit not given
# T5 construct: endogenous in cells
# [10] = target: T6, HLA-DRB1*0901 (DR9) (Homo sapiens, UniProt P01903+P01911, A100R/A103E/D57H/D86V/F55Y/F60I/F76Y/I96F/K127E/L162R/M171V/P40D/Q125H/Q99R/R33Q/R42F/S133A/S66N/T210M/V115G/W38K/Y107V/Y59G/Y89S); test: biochemical; format: binding
# T6 construct: endogenous in cells
# [11] = target: T7, HLA-DRB1*0301 (DR3) (Homo sapiens, UniProt P01903+P01911, A100K/A102G/A103R/A169T/F55Y/I96L/K41T/L162R/M171V/P40S/Q125H/Q178H/Q39Y/R42S/S66N/T106N/T262R/W38E/Y61H); test: purified HLA class II binding assay, DRB1*0301 (DR3), pH 4.5; settings: for DR3 binding: HIV DR super motif peptides, unit not given
# T7 construct: endogenous in cells; host or cells: MAT
# T7 sequence (P01903 26-254 partner, other chains not shown): as the sequence (P01903 26-254, other chains not shown) above
# [12] = target: T8, HLA-DRB1*0401 (DR4w4) (Homo sapiens, UniProt P01903+P01911, A100K/A169T/F76Y/I96L/K127E/L162R/M171V/N62H/P40V/Q125Y/R42H/S133A/S149N/S66Y/V115G/V209L/W38E); test: purified HLA class II binding assay, DRB1*0401 (DR4w4); settings: for DR4w4 binding: HIV DR super motif peptides, unit not given
# T8 construct: endogenous in cells; host or cells: Preiss
# T8 sequence (P01903 26-254 partner, other chains not shown): as the sequence (P01903 26-254, other chains not shown) above
# [13] = target: T9, HLA-DRB1*0701 (DR7) (Homo sapiens, UniProt P01903+P01911, A100R/A102G/A103Q/D57E/D86V/E43K/F76Y/K127E/L162R/M171V/P40G/Q125H/Q99D/R33Q/R42Y/R54Q/S133A/S66F/T210M/V115G/Y107V/Y59L/Y89S); test: biochemical; format: binding
# T9 construct: endogenous in cells; host or cells: Pitout
# [14] = target: T10, HLA-DRB1*0802 (DR8w2) (Homo sapiens, UniProt P01903+P01911, A100R/A103L/A169T/F76Y/H45Y/I96F/K41T/L162R/M171V/P40S/Q125H/Q178H/Q39Y/Q99D/R218S/R42G/S66Y/V115G/W38E); test: biochemical; format: binding
# T10 construct: endogenous in cells
# [15] = target: HLA-A*0101 (Homo sapiens, UniProt P04439, A114D/A174V/A182V/D101N/D185E/E176A/E190D/L180R/Q94H/R68K/S129P/T187R/V100A/V91M/W191G); test: biochemical; format: binding
# [16] = target: HLA-B*5401 (Homo sapiens, UniProt P01889, A329T/C349S/D138N/D201E/E176V/E187T/E204Q/E69G/I76V/K202T/L119W/R155S/R180L/S121T/S35A/S48A/V127L/V306I/V36M/Y140L); test: biochemical
# [17] = target: HLA-A*6801 (Homo sapiens, UniProt P04439, A269V/D185E/E176V/E277Q/E87N/F33Y/G231S/I121M/I166T/I218V/L180W/L300P/L318F/N151K/P208A/P217A/Q86R/R169H/T345S); test: purified HLA class I binding assay, A*6801; settings: for A*6801 binding information: Table IX, HIV A03 super motif peptides, binding value, unit not given
# [18] = Table XXb, HIV DR 3a motif peptides
# [19] = Table IX, HIV A03 super motif peptides, binding value, unit not given
compound,measurement,setting,value
CC[C@H](C)[C@H](NC(=O)[C@H](Cc1ccccc1)NC(=O)[C@@H](NC(=O)[C@H](C)N)C(C)C)C(=O)N[C@@H](Cc1c[nH]cn1)C(=O)N[C@@H](CC(N)=O)C(=O)N[C@@H](Cc1ccccc1)C(=O)N[C@@H](CCCCN)C(=O)N[C@@H](CCCNC(=N)N)C(=O)O [1193.03],IC50,[1],64.7 nM
same,IC50,[2],107 nM
same,IC50,[3],3.3 nM
same,IC50,[4],5.1 nM
CC[C@H](C)[C@H](NC(=O)[C@H](C)N)C(=O)N[C@@H](Cc1ccccc1)C(=O)N[C@@H](CCC(N)=O)C(=O)N[C@@H](CO)C(=O)N[C@@H](CO)C(=O)N[C@@H](CCSC)C(=O)N[C@H](C(=O)N[C@@H](CCCCN)C(=O)O)[C@@H](C)O [Peptide 966.01],IC50,[1],10 nM
same,IC50,[2],96700 nM
same,IC50,[3],10 nM
same,IC50,[4],12000 nM
CC[C@H](C)[C@H](NC(=O)CNC(=O)[C@H](CCCCN)NC(=O)[C@H](Cc1c[nH]cn1)NC(=O)[C@H](C)NC(=O)[C@@H]1CCCN1C(=O)[C@@H](NC(=O)[C@H](Cc1c[nH]c2ccccc12)NC(=O)[C@H](C)NC(=O)[C@H](CC(C)C)NC(=O)[C@H](Cc1ccc(O)cc1)NC(=O)[C@@H](NC(=O)[C@@H](N)CCCCN)C(C)C)C(C)C)C(=O)NCC(=O)NCC(=O)O [Peptide 1280.03],IC50,[5],71 nM
same,IC50,[6],25 nM
same,IC50,[7],24 nM
same,IC50,[8],2500 nM
same,IC50,[9],12600 nM
same,IC50,[10],250 nM
same,IC50,[11],> 20000 nM
ASGYIEAEVIPAFTG,DR4w4 binding,[12],0.2300
same,DR5w11 binding,[5],0.0020
same,DR2 wβ1 binding,[6],−0.0003
same,DR2w2β2 binding,[7],−0.0021
same,DR7 binding,[13],0.0710
same,DR6w19 binding,[8],0.0400
same,DR5w12 binding,[9],−0.0045
same,DR8w2 binding,[14],−0.0003
same,DR9 binding,[10],0.0320
same,DR3 binding,[11],−0.0043
EVNIVTDSQY [Peptide 1.0431],IC50,[15],472 nM
IKKEKVYLA,DR7 binding information,[13],−0.0005
same,DR6w19 binding information,[8]; [18],−0.0003
same,DR8w2 binding information,[14],−0.0015
same,DR9 binding information,[10],0.0011
ILKEVYIIGVY,A*0101 (binding information),[15],0.0017
IPIHYCAPA [1296.01],IC50,[16],3.7 nM
IVIWGKTPK [1193.0200],IC50,[2],96.7 nM
same,IC50,[3],16.2 nM
same,IC50,[4],18.2 nM
KIQNFRVYYR [1211.32],IC50,[2],341 nM
same,IC50,[4],2.7 nM
KLAGRWPVK [1069.44],IC50,[1],8.5 nM
same,IC50,[17],80000 nM
same,IC50,[2],72500 nM
same,IC50,[4],500 nM
NNLLRAIEAQQIILLQ,DR4w4 binding,[12],0.0150
same,DR7 binding,[13],0.0150
NTPVFAIKK [1273.02],IC50,[2],48300 nM
same,IC50,[3],100 nM
same,IC50,[4],30000 nM
PPVVAKEIVASCDKC,DR4w4 binding information,[12]; [18],0.0085
same,DR5w11 binding information,[5],0.0006
same,DR2w2β2 binding information,[7],−0.0021
same,DR3 binding information,[11]; [18],−0.0130
QHLLQLTVWGIKQLQ [Peptide 27.0297],IC50,[6],21 nM
same,IC50,[7],690 nM
same,IC50,[13],44 nM
same,IC50,[8],350 nM
same,IC50,[14],907 nM
same,IC50,[11],> 20000 nM
SPEVIFMFSALSEGA,DR4w4 binding,[12],0.1600
same,DR5w11 binding,[5],0.0075
same,DR2 wβ1 binding,[6],0.0280
same,DR2w2β2 binding,[7],0.0034
same,DR7 binding,[13],−0.0007
same,DR6w19 binding,[8],0.0007
same,DR5w12 binding,[9],−0.0045
same,DR8w2 binding,[14],0.0130
same,DR9 binding,[10],0.0130
same,DR3 binding,[11],−0.0043
TIKIGGQLK [1273.05],IC50,[1],40.7 nM
same,IC50,[2],36300 nM
same,IC50,[4],18000 nM
TTLFCASDAK [1273.07],IC50,[1],120 nM
same,IC50,[2],14500 nM
same,IC50,[3],27.3 nM
same,IC50,[4],9470 nM
VIFMFSALSEGATPQ,DR4w4 binding,[12],0.0058
same,DR5w11 binding,[5],−0.0010
same,DR2w2β2 binding,[7],−0.0014
same,DR7 binding,[13],−0.0007
VMIVWQVDR [Peptide 1273.08],IC50,[2],5.3 nM
same,IC50,[3],273 nM
same,IC50,[4],3.8 nM
VTVYYGVPVWKEATI,DR4w4 binding,[12],0.0071
same,DR5w11 binding,[5],0.0021
same,DR2w2β2 binding,[7],0.0270
same,DR7 binding,[13],0.0160
WMGYELIIPDK,A*0301 binding information,[1]; unit not given,0.0005
same,A*6801 binding information,[17],0.0003
same,A*1101 (binding information),[3]; [19],0.0004
same,A*1101 (binding information),"[3]; Table XVII, HIV A11 motif peptides, binding value A*1101, unit not given",0.0004
same,A*3101 binding information,[4],0.0009
YLAWVPAIIK,A0301 binding,"[1]; HIV A03 motif peptides, Table XVI, column A0301, unit not given",0.0770
same,A*0301 binding information,[1]; unit not given,0.0770
same,A*6801 binding information,[17],4.0000
same,A*1101 (binding information),[3]; [19],0.0570
same,A*1101 (HIV A11 Motif Peptides with Binding Information),"[3]; binding value to purified HLA-A*1101 in Table XVII, unit not given",0.0570
same,A*3101 binding information,[4],0.0550
